In the supplement of paper PMC9170038:

Tested on: MS2 coat protein
Assay: apparent KD of MS2 coat protein; designed switch direction (-1 OFF switch, 1 ON switch): 1; higher = weaker reporter binding
Outline: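 Apparent KD, taken as the median over clusters for each design, was obtained by curve-fitting normalised cluster fluorescence. Designed RNA switches had been transcribed on Illumina chips by stalled E. coli RNA polymerase and titrated with SNAP-549-labelled MS2 coat protein, doubling from 0.7 or 1.5 nM to 3 µM.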

[1] = input ligand: microRNA oligo, concentration not stated
[2] = Eterna round: R95, input ligand: FMN 200 uM
[3] = Eterna round: R95, input ligand: microRNA oligo, concentration not stated
[4] = Eterna round: R95, input ligand: none

Sequence | apparent KD of MS2 coat protein (input ligand: FMN 200 uM) [nM] | apparent KD of MS2 coat protein [1] [nM] | apparent KD of MS2 coat protein (input ligand: none) [nM] | apparent KD of MS2 coat protein [2] [nM] | apparent KD of MS2 coat protein [3] [nM] | apparent KD of MS2 coat protein [4] [nM]
GGAGCCGGCCUAGGAUAUUUCAUAUAAUAACAUGAGGAUCACCCAUGUAGGCCAGAAGGCCUUGGGAAGAAGGAGGUCGGCUCC [Loop Effect - U25,U28] (Eterna round: R96, puzzle: Same State NG 2) | 13.1 | 39.1 | 50.8 |  |  | 
UUUAGAUUCAGAGGAUAUUGAUGUUGUAUUUUACAAGAAGGCUGAUUGGUUUGAAAUGUUAUUAAACAUGAGGAUCACCCAUGU [JR_SSNG1_Sub012] (Eterna round: R96, puzzle: Same State NG 1) | 31.7 | 32.3 | 44.5 |  |  | 
AAAGGAUGAUUAUACAUGAGGAUCACCCAUGUUUGUAAUACUAAGGAUAUGUGACUUAAUUGUGAACAGAAGGUAGGUUCAUGA [AK SSNG3-V2-1] (Eterna round: R96, puzzle: Same State NG 3) | 56.8 | 43.6 | 62.2 |  |  | 
GGUGCCAAUAAAGCCUACAUGAGGAUCACCCAUGUAUGUAGGCAGGAUAUCGUUUGCAAAGCAAACGAGAAGGGCCUAGGCACC [Mat - Same State NG 3 - JL Mod - D61] (Eterna round: R96, puzzle: Same State NG 3) | 18.6 | 21.4 | 31.5 |  |  | 
GUUAGGAAUCUAGCAUACAUGAGGAUCACCCAUGUUAGUGGGAAGGAUAUGGUACAGAAACUGUACCAGAAGGUCUUAUUGUUU [Omei SS(NG) 3 AV12] (Eterna round: R96, puzzle: Same State NG 3) | 210 | 348 | 408 |  |  | 
GGUCCCUACGCACAGGAUAUUCUUUUGGCAACAUGAGGAUCACCCAUGUGUGCCGAUCAUGGUUAGAAGAAGGGUGGUAAGGACG [Qucesosobe] (puzzle: Same State 2) |  |  |  | 9.76 | 10.8 | 12.2
GUGGCGGGUUGAGGAUAUUGGUUGCCUAUGUUUAACAUGAGGAUCACCCAUGUGGGUUGCGGUUUCGAGAAGGUAGGUUGCUGG [salish99_SSNG2_r04_046] (Eterna round: R96, puzzle: Same State NG 2) | 228 | 109 | 188 |  |  | 
CGUACACAUGAGGAUCACCCAUGUCAGAUUUGGUCAGGAUAUGGGCGGCAUCCGCUAUUGCCAGAAGGGACUGUUG [JR_SS001_Sub703] (Eterna round: R96, puzzle: Same State 1) | 156 | 43.4 | 64.8 |  |  | 
UUAAUGAAGUAAGGAUAUACAUGAGGAUUUCUCGUAGAAGGUACUAUACAUGAGGAUCACCCAUGUGCCGGUCAGAAGACUGGA [Mat - Same State NG 1 - JL mod - D10] (Eterna round: R96, puzzle: Same State NG 1) |  | 301 |  |  |  | 
GUUACAUGAGGAUCACCCAUGUAUGUGUGGGAGUAAGUGUCUUAGGAUAUCUGUUAUUAAAUUUAAGAGAAGGAAGAUUGUUGU [JMF's solution 36] (Eterna round: R96, puzzle: Same State NG 3) | 104 | 64.1 | 92.7 |  |  | 
ACACUUGCACAUGAGGAUCACCCAUGUUGACAAGCUUUUUGCUCGUCUUAUAGAACAAAGAAGAAGAACAACAGAAA [Victory 2] (puzzle: Sensor for hsa-mir-208a version 2) |  |  |  | 20.7 | 17.9 | 21.9
GUUACAUGAGGAUCACCCAUGUAUGUGUGGGAGUAAGUGUCUUAGGAUAUCUAGUAUUUGAUUUAAGAGAAGGAAGAUUGUUGU [JMF's solution 60] (Eterna round: R96, puzzle: Same State NG 3) | 121 | 75.4 | 110 |  |  | 
AGUCCAGCCUGAGCUGGACAAAAGCAUGUACAUGAGGAUCACCCAUGUCAUGUACAAGCUUUUUGCUCGUCAAAAUA [Mat - hsa-mir-208a - Mod of JL - D29] (puzzle: Sensor for hsa-mir-208a) |  |  |  | 396 | 16.5 | 480
GGUGCCAAAUAAGCCUACAUGAGGAUCACCCAUGUAUGUAGGUAGGAUAUCGUUUGCAAAGCAAACGAGAAGGGCCUAGGCACC [Mat - Same State NG 3 - JL Mod - D59] (Eterna round: R96, puzzle: Same State NG 3) | 26.1 | 39.3 | 50.7 |  |  | 
CUGUGUUGCGGGCAGGAUAUGUACUUGAGUACAUGAGGAUCACCCAUGUGCGGGUGUUUCACCCGACAGAAGGGCCAAUCGCGAC [JL-ss2-3.23 ViennaUCT mod] (puzzle: Same State 2) |  |  |  | 68.8 | 311 | 1520
CUGUGUUGCGGGCAGGAUAUGUAUUGGAAUACAUGAGGAUCACCCAUGUGCGGGUGUUUCACCCGACAGAAGGGCCAAUCGCGAC [JL-ss2-3.21 ViennaUCT mod] (puzzle: Same State 2) |  |  |  |  | 266 | 
UGUUAACAUGAGGAUCACCCAUGUCAAAAGAAUCGAGGAUAUGGUAAGUAAUAAGAGAAUCUAGAAGGCGAAGUUG [Altered State 1-24 - Jieux - Same State 1] (puzzle: Same State 1) |  |  |  | 42.7 | 55.9 | 60.9
AACAAUCUAUCUGAGGAUAUCAUGAAAAAAACAUGAGGAUCACCCAUGUGCAGGAAAACUGCAUAUGAGAAGGCAGAUAGAUUGG [salish99_SS2_r3_003] (Eterna round: R96, puzzle: Same State 2) |  | 494 |  |  |  | 
GCCAUCGCAUGAGGAUAUGGCACCGUUUCGGUGCCAGAAGGCAUGUCAUAAGACAUGAGGAUCACCCAUGUAGUUAAGAUGGCA [JL Fiskers NG1ss - 33 mod 8] (Eterna round: R96, puzzle: Same State NG 1) | 31.4 | 521 | 751 |  |  | 
AACAAUCUAUCUGAGGAUAUCAUGAAAUAAACAUGAGGAUCACCCAUGUGCAGGAAAACUGCAUAUGAGAAGGCAGAUAGAUUGA [salish99_ss2_r3_x] (puzzle: Same State 2) |  |  |  | 49.5 | 605 | 1060
CGUCCGGCCUGUGCUGGCCGGUAGCUUGUACAUGAGGAUCACCCAUGUUCAUGUGCUGGCUUUUUGCUCGUCUUGUG [salish99_mir208a_017] (puzzle: Sensor for hsa-mir-208a) |  |  |  | 283 | 27.2 | 419
AAAUAAUAGGCAGGAUAUGGGAAAGGAAGUGUACCAGAAGGGCCGCAACUCAAUACAACAUGAGGAUCACCCAUGUUAGUGUCG [PowerStrip SSNG 1.5] (Eterna round: R96, puzzle: Same State NG 1) | 10.2 | 14.9 | 15.7 |  |  | 
UAAAUAAUGAUAGGAUAUACAUGAGGAAUUCUCGUAGAAGGAUCAUGACAUGAGGAUCACCCAUGUAACGCUCGAAAGAGCGUA [Mat - Same State NG 1 - JL mod - D40] (Eterna round: R96, puzzle: Same State NG 1) | 556 | 205 | 585 |  |  | 
UAGUGAUUGCAAGGAUAUGCUUAUGUUUAAUUUUAUUUAUUAUCUAACAUGAGGAUCACCCAUGUGCAGAAGGUGCUUGAUUUG [JR_SSNG2_Sub074] (Eterna round: R96, puzzle: Same State NG 2) |  | 48.4 |  |  |  | 
GCAGGACGAUAAAACAUCUCACAUGAGGAUCACCCAUGUCGUGAGGAUAUGGAUCCUAAUUGGAUCCAGAAGGCAUGGUCCUGC [Fiskers NG3ss - 24] (Eterna round: R96, puzzle: Same State NG 3) | 13.2 | 13.1 | 20.9 |  |  | 
GCUAGGAAUUAAGCCAACAUGAGGAUCACCCAUGUAUGUUGGUAGGAUAUCGUUUGCUUUGCAAACGAGAAGGGCUAACCUAGC [JL SSNG3 1.25] (Eterna round: R96, puzzle: Same State NG 3) | 51 | 50.4 | 58.1 |  |  | 
AGGCUCAGAGCAGGAUAUACGUGGUCACAUGAGGAUCACCCAUGUCUCGAGCUUCGGCUCGAGGCGUAGAAGGGCUCUGAGCCA [SSNG2/6-B1] (Eterna round: R96, puzzle: Same State NG 2) | 140 | 204 | 330 |  |  | 
AUUAAUUAAUUAAUACAUGAGGAUCACCCAUGUAAUAAGAUCAAGGAUAUCAGCUCGAUUAGAGCUGAGAAGGUGAUCACAUGU [SSNG3/17-B2] (Eterna round: R96, puzzle: Same State NG 3) |  | 509 |  |  |  | 
